The record followed here is patent publication US20120263722A1 (AbbVie / Abbott, published 2012).

One experiment concerns the target T1, Recombinant Human DLL4 (human, UniProt Q9NR61 27-524).
T1 construct: Bought reagent used in the Biacore analyses; also called Delta-like ligand 4
Briefly: SPR (BIACORE), N-terminal variable domain to target antigen.

The next experiment has as its target T2, ErbB3 (UniProt P21860 20-643, limits assumed).
T2 construct: also called v-erb-b2 avian erythroblastic leukemia viral oncogene homolog 3
The experiment is described as above.

The target of experiment [1] is T3, Recombinant Human VEGF 165 (human, UniProt P15692-4 27-191).
T3 construct: Bought reagent used in the Biacore analyses; also called vascular endothelial growth factor
Described as above.
Procedure: (§1) The BIACORE assay (Biacore, Inc, Piscataway, N.J.) determines the affinity of antibodies or DVD-Ig with kinetic measurements of on-rate and off-rate constants. Binding of antibodies or DVD-Ig to a target antigen (for example, a purified recombinant target antigen) was determined by surface plasmon resonance-based measurements with a Biacore® 1000 or 3000 instrument (Biacore® AB. Uppsala, Sweden) using running HBS-EP (10 mM HEPES [pH 7.4], 150 mM NaCl, 3 mM EDTA, and 0.005% surfactant P20) at 25° C. All chemicals were obtained from Biacore® AB (Uppsala, Sweden) or otherwise from a different source as described in the text.
(§2) For example, approximately 5000 RU of goat anti-mouse IgG, (Fcγ), fragment specific polyclonal antibody (Pierce Biotechnology Inc, Rockford, Ill.) diluted in 10 mM sodium acetate (pH 4.5) is directly immobilized across a CMS research grade biosensor chip using a standard amine coupling kit according to manufacturer's instructions and procedures at 25 μg/ml. Unreacted moieties on the biosensor surface are blocked with ethanolamine. Modified carboxymethyl dextran surface in flowcell 2 and 4 is used as a reaction surface. Unmodified carboxymethyl dextran without goat anti-mouse. IgG in flow cell 1 and 3 is used as the reference surface. For kinetic analysis, rate equations derived from the 1:1 Langmuir binding model are fitted simultaneously to association and dissociation phases of all eight injections (using global fit analysis) with the use of Biaevaluation 4.0.1 software. Purified antibodies or DVD-Ig are diluted in HEPES-buffered saline for capture across goat anti-mouse IgG specific reaction surfaces. Antibodies or DVD-Ig, to be captured as a ligand (25 μg/ml) are injected over reaction matrices at a flow rate of 5 μl/min. The association and dissociation rate constants, kₒₙ(M⁻¹s⁻¹) and koff (s⁻¹) are determined under a continuous flow rate of 25 μl/min. Rate constants are derived by making kinetic binding measurements at different antigen concentrations ranging from 10-200 nM. The equilibrium dissociation constant (M) of the reaction between antibodies or DVD-Igs and the target antigen is then calculated from the kinetic rate constants by the following formula: KD=koff/Kₒₙ. Binding is recorded as a function of time and kinetic rate constants are calculated.

A further experiment concerns the target T4, EGFR on the cell surface (human, UniProt P00533 25-1210).
T4 construct: whole, on cells; also called epidermal growth factor receptor
Put plainly: flow cytometry on cells carrying the target, antibody or DVD-Ig at 2 ug/mL. For orientation: In flow cytometry, cells or beads pass a laser one at a time.

Another experiment addresses T5, NRP1 on the cell surface (human, UniProt O14786 22-923).
T5 construct: whole, on cells; also called neuropilin 1
Described as above.

Experiment [2] concerns the target T6, Recombinant Human MSP R/RON (human, UniProt Q04912 25-571, limits assumed).
T6 construct: Bought reagent used in the Biacore analyses; also called macrophage stimulating protein receptor tyrosine kinase
Put plainly: SPR (BIACORE), N-terminal variable domain to target antigen. A general note: SPR reads the build-up and loss of mass on a sensor chip optically.
Procedure: as §1, §2

In experiment [3] the target is T7, Recombinant Human Neuropilin-1 (human, UniProt O14786-2 22-644, limits assumed).
T7 construct: Bought reagent used in the Biacore analyses; also called NRP1; NRP-1
Described as above.
Procedure: as §1, §2

A further experiment deals with T8, Recombinant Human PIGF (human, UniProt P49763-2 21-149, limits assumed).
T8 construct: Bought reagent used in the Biacore analyses; also called PlGF; placental growth factor
T8 sequence (looked up): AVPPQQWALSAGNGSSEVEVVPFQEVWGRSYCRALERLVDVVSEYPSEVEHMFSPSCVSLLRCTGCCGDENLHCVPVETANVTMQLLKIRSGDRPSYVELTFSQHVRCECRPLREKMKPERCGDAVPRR
Described as above.

T1 sequence (Q9NR61 27-524 limits assumed): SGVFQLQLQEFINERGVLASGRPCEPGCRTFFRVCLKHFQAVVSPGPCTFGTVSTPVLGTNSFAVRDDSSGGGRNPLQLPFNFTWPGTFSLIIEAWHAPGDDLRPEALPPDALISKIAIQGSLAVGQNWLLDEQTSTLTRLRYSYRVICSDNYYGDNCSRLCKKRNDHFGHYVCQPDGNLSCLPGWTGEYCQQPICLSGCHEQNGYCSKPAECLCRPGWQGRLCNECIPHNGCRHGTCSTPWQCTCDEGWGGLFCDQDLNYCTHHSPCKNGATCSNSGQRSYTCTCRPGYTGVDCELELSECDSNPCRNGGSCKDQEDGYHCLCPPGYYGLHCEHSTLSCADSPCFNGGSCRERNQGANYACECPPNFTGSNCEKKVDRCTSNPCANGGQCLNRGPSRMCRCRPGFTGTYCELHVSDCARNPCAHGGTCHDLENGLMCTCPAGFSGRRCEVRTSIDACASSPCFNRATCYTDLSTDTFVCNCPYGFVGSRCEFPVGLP
T3 sequence (P15692 other isoform, or with tags, fused parts or gaps limits assumed): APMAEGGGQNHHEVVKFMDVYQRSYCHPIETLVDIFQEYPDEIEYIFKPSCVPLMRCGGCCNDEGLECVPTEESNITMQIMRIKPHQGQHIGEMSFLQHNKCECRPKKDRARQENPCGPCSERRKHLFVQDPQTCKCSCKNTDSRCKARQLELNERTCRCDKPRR
Procedure for EGFR on the cell surface: (§3) Binding of monoclonal antibodies to the surface of human tumor cell fines was assessed by flow cytometry. For example, stable cell lines overexpressing a cell-surface antigen of interest or human tumor cell lines were harvested from tissue culture flasks and resuspended in phosphate buffered saline (PBS) containing 5% fetal bovine serum (PBS/FBS). Prior to staining, human tumor cells were incubated on ice with (100 μl) human IgG at 5 μg/ml in PBS/FCS. 1-5×10⁵ cells were incubated with antibody or DVD-Ig (2 μg/mL) in PBS/FBS for 30-60 minutes on ice. […] After 30 minutes incubation on ice, cells were washed twice and resuspended in PBS/PBS. Fluorescence was measured using a Becton Dickinson FACSCalibur (Becton Dickinson, San Jose, Calif.).
(§4) The geometric mean is the n root of the multiplication product of n fluorescent signals (a1×a2×a3 . . . an). With log-transformed data the geometric mean is used to normalize the weighting of the data distribution.
Procedure for ErbB3: as §1, §2
Procedure for NRP1 on the cell surface: as §3, §4
Procedure for Recombinant Human DLL4: as §1, §2
Procedure for Recombinant Human PIGF: as §1, §2

B1: DVD1867 (bispecific antibody, human IgG1, kappa)
heavy: not shown
light: DIQMTQSPSSLSASVGDRVTITCRASQDVSTAVAWYQQKPGKAPKLLIYSASFLYSGVPSRFSGSGSGTDFTLTISSLQPEDFATTYYCQQSYTGTVTFGQGTKVEIKRTVAAPQIVLIQSPAIMSASPGEKVTMTCSASSSVSYMYWYQQKPGSSPRLLIYDTSNLASGVPVRFSGSGSGTSYSLTISRMEAEDAATYYCQQWSGYPYTFGGGTKLEIKRTVAAPSVFIFPPSDEQLKSGTASVVCLLNNFYPREAKVQWKVDNALQSGNSQESVTEQDSKDSTYSLSSTLTLSKADYEKHKVYACEVTHQGLSSPVTKSFNRGEC
notes: Outer domain anti-DLL4 (AB015), inner domain anti-IL-6 (AB040); also called DVD1867H; DVD1867L
The term Kd denotes a measure of binding affinity in units of concentration. What is called koff is a measure of how fast the partners let go of each other. The kon is the second-order rate constant of association. Take B1: in the experiment with Recombinant Human DLL4, the Kd worked out at 490 pM, the off-rate constant (koff) was found to be 0.00022 s⁻¹ and the kon came to 460000 M⁻¹ s⁻¹.

B2: DVD1899 (bispecific antibody, human IgG1, kappa)
heavy: not shown
light: QSALTQPASVSGSPGQSITISCTGTSSDVGSYNVVSWYQQHPGKAPKLIIYEVSQRPSGVSNRFSGSKSGNTASLTISGLQTEDEADYYCCSYAGSSIFVIFGGGTKVTVLGQPKAAPQIVLIQSPAIMSASPGEKVTMTCSASSSVSYMYWYQQKPGSSPRLLIYDTSNLASGVPVRFSGSGSGTSYSLTISRMEAEDAATYYCQQWSGYPYTFGGGTKLEIKRTVAAPSVFIFPPSDEQLKSGTASVVCLLNNFYPREAKVQWKVDNALQSGNSQESVTEQDSKDSTYSLSSTLTLSKADYEKHKVYACEVTHQGLSSPVTKSFNRGEC
notes: also called DVD1899H; DVD1899L
Turning to B2, in the experiment with ErbB3, binding was characterised by a dissociation constant (Kd) of 6700 pM, the koff is 0.00026 s⁻¹ and the kon amounted to 38000 M⁻¹ s⁻¹.

B3: DVD1865 (bispecific antibody, human IgG1, kappa)
heavy: not shown
light: DIQMTQSPSSLSASVGDRVTITCSASQDISNYLNWYQQKPGKAPKVLIYFTSSLHSGVPSRFSGSGSGTDFTLTISSLQPEDFATYYCQQYSTVPWTFGQGTKVEIKRTVAAPQIVLIQSPAIMSASPGEKVTMTCSASSSVSYMYWYQQKPGSSPRLLIYDTSNLASGVPVRFSGSGSGTSYSLTISRMEAEDAATYYCQQWSGYPYTFGGGTKLEIKRTVAAPSVFIFPPSDEQLKSGTASVVCLLNNFYPREAKVQWKVDNALQSGNSQESVTEQDSKDSTYSLSSTLTLSKADYEKHKVYACEVTHQGLSSPVTKSFNRGEC
notes: also called DVD1865H; DVD1865L
B3: in experiment [1], the Kd is under 2 pM, the koff is under 1e-06 s⁻¹ and the kon worked out at 640000 M⁻¹ s⁻¹.

B4: DVD1875 (bispecific antibody, human IgG1, kappa)
heavy: not shown
light: DIQMTQSPSSLSASVGDRVTITCQASQDISNYLNWYQQKPGKAPKLLIYDASNLETGVPSRFSGSGSGTDFTFTISSLQPEDIATYFCQHFDHLPLAFGGGTKVEIKRTVAAPQIVLIQSPAIMSASPGEKVTMTCSASSSVSYMYWYQQKPGSSPRLLIYDTSNLASGVPVRFSGSGSGTSYSLTISRMEAEDAATYYCQQWSGYPYTFGGGTKLEIKRTVAAPSVFIFPPSDEQLKSGTASVVCLLNNFYPREAKVQWKVDNALQSGNSQESVTEQDSKDSTYSLSSTLTLSKADYEKHKVYACEVTHQGLSSPVTKSFNRGEC
notes: also called DVD1875H; DVD1875L
For the molecule B4, the “N-Terminal VD GEO MEAN (FACS geometric mean)” value (shortened to “N-Terminal VD GEO MEAN”) with EGFR on the cell surface was found to be 717.

B5: AB016 (antibody, V domains shown)
VH: EVQLVESGGGLVQPGGSLRLSCAASGFSFSSEPISWVRQAPGKGLEWVSSITGKNGYTYYADSVKGRFTISADTSKNTAYLQMNSLRAEDTAVYYCARWGKKVYGMDVWGQGTLVTVSS
VL: DIQMTQSPSSLSASVGDRVTITCRASQSISSYLAWYQQKPGKAPKLLIYGASSRASGVPSRFSGSGSGTDFTLTISSLQPEDFATYYCQQYMSVPITFGQGTKVEIKR
notes: Parent antibody; also called AB016VH; AB016VL
With B5, the “N-Terminal VD GEO MEAN” value in the experiment with NRP1 on the cell surface came out at 15.4.

B6: DVD1857 (bispecific antibody, human IgG1, kappa)
heavy: not shown
light: DIQMTQSPSSLSASVGDRVTITCQASQDITNYLNWYQQKPGKAPKLLIYDASNLETGVPSRFSGSGSGTDFTFTISSLQPEDIATYNCQQCENFPITFGQGTRLEIKRTVAAPQIVLIQSPAIMSASPGEKVTMTCSASSSVSYMYWYQQKPGSSPRLLIYDTSNLASGVPVRFSGSGSGTSYSLTISRMEAEDAATYYCQQWSGYPYTFGGGTKLEIKRTVAAPSVFIFPPSDEQLKSGTASVVCLLNNFYPREAKVQWKVDNALQSGNSQESVTEQDSKDSTYSLSSTLTLSKADYEKHKVYACEVTHQGLSSPVTKSFNRGEC
notes: also called DVD1857H; DVD1857L
Regarding B6, in the experiment with ErbB3, the Kd was 120 pM, the koff worked out at 0.00015 s⁻¹ and the kon was 1.2e+06 M⁻¹ s⁻¹.

B7: DVD1901 (bispecific antibody, human IgG1, kappa)
heavy: not shown
light: DIQMTQSPSSLSASVGDRVTITCRASQDVSTAVAWYQQKPGKAPKLLIYSASFLYSGVPSRFSGSGSGTDFTLTISSLQPEDFATYYCQQSYTTPPTFGQGTKVEIKRTVAAPQIVLIQSPAIMSASPGEKVTMTCSASSSVSYMYWYQQKPGSSPRLLIYDTSNLASGVPVRFSGSGSGTSYSLTISRMEAEDAATYYCQQWSGYPYTFGGGTKLEIKRTVAAPSVFIFPPSDEQLKSGTASVVCLLNNFYPREAKVQWKVDNALQSGNSQESVTEQDSKDSTYSLSSTLTLSKADYEKHKVYACEVTHQGLSSPVTKSFNRGEC
notes: also called DVD1901H; DVD1901L
For B7, in experiment [1], the Kd turned out to be 160 pM, the koff was found to be 9.3e-05 s⁻¹ and the kon was found to be 580000 M⁻¹ s⁻¹.

B8: DVD1907 (bispecific antibody, human IgG1, kappa)
heavy: not shown
light: DIQMTQSPSSMSVSVGDRVTITCHSSQDINSNIGWLQQKPGKSFKGLIYHGTNLDDGVPSRFSGSGSGTDYTLTISSLQPEDFATYYCVQYAQFPWTFGGGTKLEIKRTVAAPQIVLIQSPAIMSASPGEKVTMTCSASSSVSYMYWYQQKPGSSPRLLIYDTSNLASGVPVRFSGSGSGTSYSLTISRMEAEDAATYYCQQWSGYPYTFGGGTKLEIKRTVAAPSVFIFPPSDEQLKSGTASVVCLLNNFYPREAKVQWKVDNALQSGNSQESVTEQDSKDSTYSLSSTLTLSKADYEKHKVYACEVTHQGLSSPVTKSFNRGEC
notes: also called DVD1907H; DVD1907L
With B8, the “N-Terminal VD GEO MEAN” value in the experiment with EGFR on the cell surface was found to be 23.5.

B9: DVD1871 (bispecific antibody, human IgG1, kappa)
heavy: not shown
light: QAVLTQPSSLSAPPGASASLTCTLRSGFNVDSYRISWYQQKPGSPPQYLLRYKSDSDKQQGSGVPSRFSGSKDASANAGILLISGLQSEDEADYYCMIWHSSAWVFGGGTKLTVLRTVAAPQIVLIQSPAIMSASPGEKVTMTCSASSSVSYMYWYQQKPGSSPRLLIYDTSNLASGVPVRFSGSGSGTSYSLTISRMEAEDAATYYCQQWSGYPYTFGGGTKLEIKRTVAAPSVFIFPPSDEQLKSGTASVVCLLNNFYPREAKVQWKVDNALQSGNSQESVTEQDSKDSTYSLSSTLTLSKADYEKHKVYACEVTHQGLSSPVTKSFNRGEC
notes: also called DVD1871H; DVD1871L
For B9, in experiment [2], the Kd is over 1000 pM, the koff is over 0.01 s⁻¹ and the kon is over 1e+07 M⁻¹ s⁻¹.

B10: DVD1889 (bispecific antibody, human IgG1, kappa)
heavy: not shown
light: DIQMTQSPSSLSASVGDRVTITCRASQSISSYLAWYQQKPGKAPKLLIYGASSRASGVPSRFSGSGSGTDFTLTISSLQPEDFATYYCQQYMSVPITFGQGTKVEIKRTVAAPQIVLIQSPAIMSASPGEKVTMTCSASSSVSYMYWYQQKPGSSPRLLIYDTSNLASGVPVRFSGSGSGTSYSLTISRMEAEDAATYYCQQWSGYPYTFGGGTKLEIKRTVAAPSVFIFPPSDEQLKSGTASVVCLLNNFYPREAKVQWKVDNALQSGNSQESVTEQDSKDSTYSLSSTLTLSKADYEKHKVYACEVTHQGLSSPVTKSFNRGEC
notes: also called DVD1889H; DVD1889L
Turning to B10, the “N-Terminal VD GEO MEAN” value in the experiment with NRP1 on the cell surface was determined as 15. In addition, in experiment [3], the Kd is 500 pM, the koff is 0.00019 s⁻¹ and the kon amounted to 380000 M⁻¹ s⁻¹.

B11: DVD1855 (bispecific antibody, human IgG1, kappa)
heavy: not shown
light: DIEMTQSPDSLAVSLGERATINCRSSQSVLYSSSNRNYLAWYQQNPGQPPKLLIYWASTRESGVPDRFSGSGSGTDFTLTISSLQAEDVAVYYCQQYYSTPRTFGQGTKVEIKRTVAAPQIVLIQSPAIMSASPGEKVTMTCSASSSVSYMYWYQQKPGSSPRLLIYDTSNLASGVPVRFSGSGSGTSYSLTISRMEAEDAATYYCQQWSGYPYTFGGGTKLEIKRTVAAPSVFIFPPSDEQLKSGTASVVCLLNNFYPREAKVQWKVDNALQSGNSQESVTEQDSKDSTYSLSSTLTLSKADYEKHKVYACEVTHQGLSSPVTKSFNRGEC
notes: also called DVD1855H; DVD1855L
In the experiment with ErbB3, B11 registered a Kd of 3700 pM, a koff of 0.00038 s⁻¹ and a kon of 100000 M⁻¹ s⁻¹.

B12: DVD1869 (bispecific antibody, human IgG1, kappa)
heavy: not shown
light: DIVLTQSPDSLAVSLGERVTMNCKSSQSLLNSGMRKSFLAWYQQKPGQSPKLLIYWASTRESGVPDRFTGSGSGTDFTLTISSVQAEDVAVYYCKQSYHLFTFGSGTKLEIKRTVAAPQIVLIQSPAIMSASPGEKVTMTCSASSSVSYMYWYQQKPGSSPRLLIYDTSNLASGVPVRFSGSGSGTSYSLTISRMEAEDAATYYCQQWSGYPYTFGGGTKLEIKRTVAAPSVFIFPPSDEQLKSGTASVVCLLNNFYPREAKVQWKVDNALQSGNSQESVTEQDSKDSTYSLSSTLTLSKADYEKHKVYACEVTHQGLSSPVTKSFNRGEC
notes: Outer domain anti-PlGF (AB047), inner domain anti-IL-6 (AB040); also called DVD1869H; DVD1869L
B12: in the experiment with Recombinant Human PIGF, the Kd worked out at 20 pM, the koff came out at 0.00011 s⁻¹ and the kon was 5.6e+06 M⁻¹ s⁻¹.

B13: DVD1853 (bispecific antibody, human IgG1, kappa)
heavy: not shown
light: DVVMTQSPLSLPVTPGEPASISCRSSQSLLHSNGFNYVDWYLQKPGQSPHLLIYFGSYRASGVPDRFSGSGSGTDFTLKISRVEAEDVGVYYCMQALQTPPWTFGQGTKVEIRRTVAAPQIVLIQSPAIMSASPGEKVTMTCSASSSVSYMYWYQQKPGSSPRLLIYDTSNLASGVPVRFSGSGSGTSYSLTISRMEAEDAATYYCQQWSGYPYTFGGGTKLEIKRTVAAPSVFIFPPSDEQLKSGTASVVCLLNNFYPREAKVQWKVDNALQSGNSQESVTEQDSKDSTYSLSSTLTLSKADYEKHKVYACEVTHQGLSSPVTKSFNRGEC
notes: also called DVD1853H; DVD1853L
On to B13, for which, in experiment [2], the Kd came to 15000 pM, the koff worked out at 0.00085 s⁻¹ and the kon was 58000 M⁻¹ s⁻¹.
